Measured values reported in patent publication EP1506972A1 (Genentech Inc., dated 2005).

Columns and labels:
Test in all cases: competitive phage ELISA, soluble IGFBP-1 vs coated IGFBP-1
[1] = molecular target: T1, IGF-I L10A (G1S-A70V background) displayed on phage (human; bacteriophage M13)
T1 construct: not shown: M13 gene III fragment (residues 249-406, display carrier) and the IGF-g3 junction
T1 chain: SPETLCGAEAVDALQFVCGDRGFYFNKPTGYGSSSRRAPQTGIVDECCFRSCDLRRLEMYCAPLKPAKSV

[2] = molecular target: T2, IGF-I D12A (G1S-A70V background) displayed on phage (human; bacteriophage M13)
T2 construct: not shown: M13 gene III fragment (residues 249-406, display carrier) and the IGF-g3 junction
T2 chain: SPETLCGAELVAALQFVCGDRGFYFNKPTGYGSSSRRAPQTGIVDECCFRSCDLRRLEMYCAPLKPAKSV

[3] = molecular target: T3, IGF-I P28A (G1S-A70V background) displayed on phage (human; bacteriophage M13)
T3 construct: not shown: Display carrier: M13 gene III protein fragment (residues 249-406) and the junction to it
T3 chain: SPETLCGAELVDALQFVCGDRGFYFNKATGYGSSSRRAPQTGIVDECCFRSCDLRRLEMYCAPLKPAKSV

[4] = molecular target: T4, IGF-I G1S-A70V displayed on phage (fused to M13 gene III protein residues 249-406) (human; bacteriophage M13)
T4 construct: Monovalent display on M13 phagemid particles; template of the alanine scan; also called G1S-A70V IGF-I; wild-type-like IGF-I variant; not shown: Display carrier: M13 gene III protein fragment (residues 249-406) and the junction to it

[5] = molecular target: T5, IGF-I S33A (G1S-A70V background) displayed on phage (human; bacteriophage M13)
T5 construct: not shown: Display carrier: M13 gene III protein fragment (residues 249-406) and the junction to it
T5 chain: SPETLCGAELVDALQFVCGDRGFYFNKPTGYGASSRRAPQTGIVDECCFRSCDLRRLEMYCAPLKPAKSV

[6] = molecular target: T6, IGF-I D53A (G1S-A70V background) displayed on phage (human; bacteriophage M13)
T6 construct: not shown: Display carrier: M13 gene III protein fragment (residues 249-406) and the junction to it
T6 chain: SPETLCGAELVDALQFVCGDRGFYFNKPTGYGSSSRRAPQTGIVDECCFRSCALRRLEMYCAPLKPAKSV

[7] = molecular target: T7, IGF-I L54A (G1S-A70V background) displayed on phage (human; bacteriophage M13)
T7 construct: not shown: Display carrier: M13 gene III protein fragment (residues 249-406) and the junction to it
T7 chain: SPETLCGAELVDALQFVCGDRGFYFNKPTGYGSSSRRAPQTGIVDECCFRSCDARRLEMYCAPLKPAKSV

[8] = molecular target: T8, IGF-I S1A (G1S-A70V background) displayed on phage (human; bacteriophage M13)
T8 construct: range 249-406; the result is Ala 1

[9] = molecular target: T9, IGF-I L57A (G1S-A70V background) displayed on phage (human; bacteriophage M13)
T9 construct: not shown: M13 gene III fragment (residues 249-406), the display partner, and its junction to IGF-I
T9 chain: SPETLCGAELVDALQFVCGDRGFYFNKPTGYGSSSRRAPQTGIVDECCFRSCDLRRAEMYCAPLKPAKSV

[10] = molecular target: T10, IGF-I M59A (G1S-A70V background) displayed on phage (human; bacteriophage M13)
T10 construct: not shown: M13 gene III fragment (residues 249-406), the display partner, and its junction to IGF-I
T10 chain: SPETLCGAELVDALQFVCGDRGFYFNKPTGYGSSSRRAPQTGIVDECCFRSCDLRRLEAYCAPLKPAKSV

[11] = molecular target: T11, IGF-I P63A (G1S-A70V background) displayed on phage (human; bacteriophage M13)
T11 construct: not shown: M13 gene III fragment (residues 249-406), the display partner, and its junction to IGF-I
T11 chain: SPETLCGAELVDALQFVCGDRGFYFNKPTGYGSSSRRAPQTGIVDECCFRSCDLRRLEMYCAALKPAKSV

[12] = molecular target: T12, IGF-I L64A (G1S-A70V background) displayed on phage (human; bacteriophage M13)
T12 construct: not shown: M13 gene III fragment (residues 249-406), the display partner, and its junction to IGF-I
T12 chain: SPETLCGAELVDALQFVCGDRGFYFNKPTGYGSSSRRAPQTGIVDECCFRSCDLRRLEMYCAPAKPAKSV

[13] = molecular target: T13, IGF-I K65A (G1S-A70V background) displayed on phage (human; bacteriophage M13)
T13 construct: not shown: M13 gene III fragment (residues 249-406), the display partner, and its junction to IGF-I
T13 chain: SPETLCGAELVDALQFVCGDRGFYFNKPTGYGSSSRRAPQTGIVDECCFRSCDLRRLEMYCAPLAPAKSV

[14] = molecular target: T14, IGF-I P66A (G1S-A70V background) displayed on phage (human; bacteriophage M13)
T14 construct: not shown: Display carrier: M13 gene III protein fragment (residues 249-406) and its junction to Val70

[15] = molecular target: T15, IGF-I P2A (G1S-A70V background) displayed on phage (human; bacteriophage M13)
T15 construct: range 249-406

[16] = molecular target: T16, IGF-I S1G (single mutant of G1S-A70V) displayed on phage (human; bacteriophage M13, UniProt P05019 49-117)
T16 construct: not shown: Display carrier: M13 gene III protein fragment (residues 249-406) and its junction to Val70

[17] = molecular target: T17, IGF-I E3A (G1S-A70V background) displayed on phage (human; bacteriophage M13)
T17 construct: not shown: Display carrier: M13 gene III protein fragment (residues 249-406) and its junction to Val70

[18] = molecular target: T18, IGF-I T4A (G1S-A70V background) displayed on phage (human; bacteriophage M13)
T18 construct: not shown: The display carrier: M13 gene III protein fragment (residues 249-406) and the junction to it
T18 chain: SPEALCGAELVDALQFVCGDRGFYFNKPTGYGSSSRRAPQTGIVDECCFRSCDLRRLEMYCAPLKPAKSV

B1: human IGFBP-1 (other, UniProt P08833 26-259, looked up)
chain: APWQCAPCSAEKLALCPPVSASCSEVTRSAGCGCCPMCALPLGAACGVATARCARGLSCRALPGEQQPLHALTRGQGACVQESDASAPHAAEAGSPESPESTEITEEELLDNFHLMAPSEEDHSILWDAISTYDGSKALHVTNIKKWKEPCRIELYRVVESLAKAQETSGEEISKFYLPNCNKNGFYHSRQCETSMDGEAGLCWCVYPWNGKRIPGSPEIRGDPNCQIYFNVQN
notes: Secreted recombinant protein
**Q.** What does the source list for B1?
**A.** relative IC50 (IC50mut/IC50 G1S-A70V) [1]: 37.9 fold; relative IC50 (IC50mut/IC50 G1S-A70V) [2]: 0.5 fold; relative IC50 (IC50mut/IC50 G1S-A70V) [3]: 1.1 fold; relative IC50 (IC50mut/IC50 G1S-A70V) [4]: 1 fold; relative IC50 (IC50mut/IC50 G1S-A70V) [5]: 1.1 fold; relative IC50 (IC50mut/IC50 G1S-A70V) [6]: 1.9 fold; relative IC50 (IC50mut/IC50 G1S-A70V) [7]: 2.8 fold; relative IC50 (IC50mut/IC50 G1S-A70V) [8]: 0.6 fold; relative IC50 (IC50mut/IC50 G1S-A70V) [9]: 2.7 fold; relative IC50 (IC50mut/IC50 G1S-A70V) [10]: 1.6 fold; relative IC50 (IC50mut/IC50 G1S-A70V) [11]: > 100 fold; relative IC50 (IC50mut/IC50 G1S-A70V) [12]: 1.5 fold; relative IC50 (IC50mut/IC50 G1S-A70V) [13]: 1.5 fold; relative IC50 (IC50mut/IC50 G1S-A70V) [14]: 1.1 fold; relative IC50 (IC50mut/IC50 G1S-A70V) [15]: 1.3 fold; relative IC50 (IC50mut/IC50 G1S-A70V) [16]: 1.4 fold; relative IC50 (IC50mut/IC50 G1S-A70V) [17]: 33.9 fold; relative IC50 (IC50mut/IC50 G1S-A70V) [18]: 2.4 fold
